Values belong to the molecule of their own block, whether it stands above or below them. Bridge positions count the residues as written; N and C are the ends. Ends that are not written are not given here. Peptide text beside a SMILES is read from it.
What was measured:
[1] = molecular target: T1, full-length PHGDH (1-533) (Homo sapiens, UniProt O43175); test: full-length PHGDH enzyme activity assay (NADH fluorescence); type: biochemical; settings: read-out: IC50 value (μM), full-length PHGDH activity
T1 construct: the full-length PHGDH (1-533); made in house
T1 sequence (O43175 1-533): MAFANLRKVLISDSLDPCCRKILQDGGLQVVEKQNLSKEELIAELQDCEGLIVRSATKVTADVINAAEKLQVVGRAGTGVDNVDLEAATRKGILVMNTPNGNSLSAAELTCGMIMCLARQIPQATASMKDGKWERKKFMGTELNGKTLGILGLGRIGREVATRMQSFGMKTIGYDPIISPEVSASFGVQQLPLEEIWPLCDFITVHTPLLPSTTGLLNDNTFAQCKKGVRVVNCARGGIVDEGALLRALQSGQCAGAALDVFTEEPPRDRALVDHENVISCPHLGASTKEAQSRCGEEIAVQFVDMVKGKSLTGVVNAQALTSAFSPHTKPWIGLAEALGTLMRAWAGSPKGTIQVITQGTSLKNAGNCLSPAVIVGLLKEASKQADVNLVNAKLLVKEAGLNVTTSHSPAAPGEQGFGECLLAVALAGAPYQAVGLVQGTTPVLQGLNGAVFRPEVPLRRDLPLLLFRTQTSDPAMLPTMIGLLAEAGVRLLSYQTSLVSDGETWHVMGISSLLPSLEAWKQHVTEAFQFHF
Procedure: (§1) PHGDH activity in the presence of peptides was measured in 96-well plates (100 μL per well) at 25 °C, through monitoring the NADH fluorescence (excitation at 360 nm and emission at 460 nm) over time. PAST1 and its substrate glutamate were also included in order to prevent product inhibition. In the enzyme assays, protein expression and purification, including the truncated version of PHGDH (sPHGDH, 1-307), the full-length PHGDH (1-533), and PAST1, were carried out as described in our previous papers. To evaluate the effects of peptides on enzyme activity, the peptides were pre-incubated with enzyme samples (sPHGDH 453.3 nM or PHGDH 30.9 nM) in the assay buffer (HEPES 50 mM, pH 7.5, 10 mM MgCl2, and 1 mM EDTA) for 12 h. Then, 1.98 μM PAST1, 1 mM NAD^+, and 30 mM glutamate were added and pre-incubated for 10 min before initiating the enzyme reaction via the addition of the substrate (1 mM 3-PG). Fluorescence signals were recorded for 3 min with the kinetics-reading mode of the Biotek plate reader (Synergy). IC50 values were obtained through fitting the data using a three-parameter Hill model of the graph of log dose against the percentage inhibition from three repeated experiments. For those peptides containing two disulfide bonds, a second step of oxidation reaction was carried out to generate the second disulfide pair. […] The purified Acm-protected peptide was then treated with iodine (I2, 1 wt% in MeOH), dropwise under acidic conditions until the solution became brown.

[2] = molecular target: T2, sPHGDH (1-307) (Homo sapiens, UniProt O43175); test: sPHGDH enzyme activity assay (NADH fluorescence); type: biochemical; settings: sPHGDH; for Inhibition Rate (%): peptide concentration of 50 µM
T2 construct: the truncated version of PHGDH (sPHGDH, 1-307); made in house
T2 sequence (O43175 1-307): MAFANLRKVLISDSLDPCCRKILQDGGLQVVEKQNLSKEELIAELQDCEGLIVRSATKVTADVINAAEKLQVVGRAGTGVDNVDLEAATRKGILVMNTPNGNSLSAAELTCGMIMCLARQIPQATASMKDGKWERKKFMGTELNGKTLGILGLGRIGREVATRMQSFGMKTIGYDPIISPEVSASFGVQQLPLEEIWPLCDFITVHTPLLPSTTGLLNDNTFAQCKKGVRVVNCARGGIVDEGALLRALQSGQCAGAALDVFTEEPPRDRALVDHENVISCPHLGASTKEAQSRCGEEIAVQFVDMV
Procedure: as §1

[3] = molecular target: truncated version of PHGDH (sPHGDH, 1-307) (human) (UniProt O43175)

IC50 ([2]; 12 h pre-incubation, read-out: IC50 Value): 13.4 ± 2 µM
IC50 [1]: 37.1 ± 1.7 µM
Molecule: CSCC[C@@H]1NC(=O)[C@H](CO)NC(=O)[C@H](C)NC(=O)[C@H]([C@@H](C)O)NC(=O)[C@H](C)NC(=O)[C@H](CCC(N)=O)NC(=O)[C@@H]2CCCN2C(=O)[C@H]([C@@H](C)O)NC(=O)[C@@H](NC(C)=O)CSSC[C@@H](C(=O)O)NC(=O)[C@H](CCCCN)NC(=O)[C@H](CCCCN)NC(=O)[C@H](Cc2c[nH]c3ccccc23)NC(=O)[C@H](CCC(=O)O)NC(=O)[C@H](Cc2c[nH]c3ccccc23)NC(=O)[C@H](CCCCN)NC(=O)CNC(=O)[C@H](CC(=O)O)NC(=O)[C@H](CC(C)C)NC1=O [Cyc1-5, C1TPQA TASML DGKWE WKKC19] (Ac-CTPQATASMLDGKWEWKKC-OH; disulfide 1-19)

IC50 [1]: 56.1 ± 3.4 µM
Molecule: CSCC[C@@H]1NC(=O)[C@H](CO)NC(=O)[C@H](C)NC(=O)[C@H]([C@@H](C)O)NC(=O)[C@H](C)NC(=O)[C@H](CCC(N)=O)NC(=O)[C@@H]2CCCN2C(=O)[C@H]([C@@H](C)O)NC(=O)[C@@H](NC(C)=O)CSSC[C@@H](C(=O)O)NC(=O)[C@H](CCCCN)NC(=O)[C@H](CCCCN)NC(=O)[C@H](CCC(=O)O)NC(=O)[C@H](CCC(N)=O)NC(=O)[C@H](Cc2c[nH]c3ccccc23)NC(=O)[C@H](CO)NC(=O)CNC(=O)[C@H](CC(N)=O)NC(=O)[C@H](CCCCN)NC1=O [Cyc1-9, C1TPQA TASMK NGSWQ EKKC19] (Ac-CTPQATASMKNGSWQEKKC-OH; disulfide 1-19)

Inhibition Rate (%) [2]: 44%
Molecule: C1TPQA TAC8MW DGKWC15 RKKC19 (CTPQATACMWDGKWCRKKC; disulfide 1-19, 8-15; not fully specified (N-terminus); printed as C_1_TPQA TAC_8_MW DGKWC_15_ RKKC_19_) [Cyc2-4, cyc2-1 with K10W]

Inhibition Rate (%) [2]: 40%
inhibitory activity on sPHGDH (in words) [2]: limited activity
Molecule: C1TPQA TASMK DGKWE RKKC19 (CTPQATASMKDGKWERKKC; disulfide 1-19; not fully specified (N-terminus); printed as C_1_TPQATASMKDGKWERKKC_19_) [Cyc1-1, head-to-tail disulfide-cyclized peptide (C1-C19) from the PHGDH dimerization loop]

Inhibition Rate (%) [2]: None
inhibitory activity on sPHGDH (in words) [2]: completely eliminated the activity
Molecule: C1TPQA TLLMK DGKWE EKKC19 (CTPQATLLMKDGKWEEKKC; disulfide 1-19; not fully specified (N-terminus); printed as C_1_TPQA TLLMK DGKWE EKKC_19_) [Cyc1-8, cyc1-2 with substitution S8L]

Inhibition Rate (%) [2]: None
inhibitory activity on sPHGDH (in words) [2]: inactive
Molecule: C1TPQA TLSMK NGSWQ EKKC19 (CTPQATLSMKNGSWQEKKC; disulfide 1-19; not fully specified (N-terminus); printed as C_1_TPQA TLSMK NGSWQ EKKC_19_) [Cyc1-10, cyc1-9 with added A7L]

Inhibition rate of sPHGDH enzyme activity (NADH fluorescence) at 50 µM peptide; the pair blocked is the sPHGDH homo-dimer (m1+m1) [3]: 19%
B1: cyclic peptide cyc1-3 (peptide)
peptide: CTPQATKSMLDGKWEEKKC
modifications: disulfide 1-19; not fully specified (N-terminus); printed as C_1_TPQA TKSML DGKWE EKKC_19_

Inhibition rate of sPHGDH enzyme activity (NADH fluorescence) at 50 µM peptide; the pair blocked is the sPHGDH homo-dimer (m1+m1) [3]: 44%
B3: double constrained cyclic peptide cyc2-4 (peptide)
peptide: CTPQATACMWDGKWCRKKC
modifications: disulfide 1-19, 8-15; not fully specified (N-terminus); printed as C_1_TPQA TAC_8_MW DGKWC_15_ RKKC_19_

IC50 of inhibition of sPHGDH enzyme activity (NADH fluorescence); the pair blocked is the sPHGDH homo-dimer (m1+m1) [3]: 5.6 µM
B5: cyclic peptide cyc1-7 (peptide)
peptide: CTPQATLTMKDGKWEEKKC
modifications: disulfide 1-19; not fully specified (N-terminus); printed as C_1_TPQA TLTMK DGKWE EKKC_19_

Inhibition rate of sPHGDH enzyme activity (NADH fluorescence) at 50 µM peptide; the pair blocked is the sPHGDH homo-dimer (m1+m1) [3]: 27%
B6: double constrained cyclic peptide cyc2-5 (peptide)
peptide: CTPQATACMKDGKWCWKKC
modifications: disulfide 1-19, 8-15; not fully specified (N-terminus); printed as C_1_TPQA TAC_8_MK DGKWC_15_ WKKC_19_

The next lines start with the molecule.

Molecule: CSCC[C@@H]1NC(=O)[C@H](CO)NC(=O)[C@H](CC(C)C)NC(=O)[C@H]([C@@H](C)O)NC(=O)[C@H](C)NC(=O)[C@H](CCC(N)=O)NC(=O)[C@@H]2CCCN2C(=O)[C@H]([C@@H](C)O)NC(=O)[C@@H](NC(C)=O)CSSC[C@@H](C(=O)O)NC(=O)[C@H](CCCCN)NC(=O)[C@H](CCCCN)NC(=O)[C@H](CCC(=O)O)NC(=O)[C@H](CCC(=O)O)NC(=O)[C@H](Cc2c[nH]c3ccccc23)NC(=O)[C@H](CCCCN)NC(=O)CNC(=O)[C@H](CC(=O)O)NC(=O)[C@H](CCCCN)NC1=O [Cyc1-2, C1TPQA TLSMK DGKWE EKKC19] (Ac-CTPQATLSMKDGKWEEKKC-OH; disulfide 1-19)
IC50 [1]: 20.1 ± 2.6 µM

Molecule: C1TPQA TAC8MK DGKWC15 WKKC19 (CTPQATACMKDGKWCWKKC; disulfide 1-19, 8-15; not fully specified (N-terminus); printed as C_1_TPQA TAC_8_MK DGKWC_15_ WKKC_19_) [Cyc2-5, cyc2-1 with R16W]
Inhibition Rate (%) [2]: 27%

Molecule: C1TPQA TESML RGKWE EKKC19 (CTPQATESMLRGKWEEKKC; disulfide 1-19; not fully specified (N-terminus); printed as C_1_TPQA TESML RGKWE EKKC_19_) [Cyc1-4, single disulfide cyclic peptide with A7E and D11R]
Inhibition Rate (%) [2]: None
inhibitory activity on sPHGDH (in words) [2]: largely decreased or abolished the activity

Molecule: C1TPQA TKSML DGKWE EKKC19 (CTPQATKSMLDGKWEEKKC; disulfide 1-19; not fully specified (N-terminus); printed as C_1_TPQA TKSML DGKWE EKKC_19_) [Cyc1-3, single disulfide cyclic peptide with substitution A7K]
Inhibition Rate (%) [2]: 19%
inhibitory activity on sPHGDH (in words) [2]: largely decreased or abolished the activity

B2: double constrained cyclic peptide cyc2-2 (peptide)
peptide: CTPQATACMLDGKWCRKKC
modifications: disulfide 1-19, 8-15; not fully specified (N-terminus); printed as C_1_TPQA TAC_8_ML DGKWC_15_ RKKC_19_
IC50 of inhibition of sPHGDH enzyme activity (NADH fluorescence); the pair blocked is the sPHGDH homo-dimer (m1+m1) [3]: 9.4 µM

B4: double constrained cyclic peptide cyc2-6 (peptide)
peptide: CTPQATACMLDGKWCEKKC
modifications: disulfide 1-19, 8-15; not fully specified (N-terminus); printed as C_1_TPQA TAC_8_ML DGKWC_15_ EKKC_19_
IC50 of inhibition of sPHGDH enzyme activity (NADH fluorescence); the pair blocked is the sPHGDH homo-dimer (m1+m1) [3]: 15 µM

B7: cyclic peptide cyc1-1 (peptide)
peptide: CTPQATASMKDGKWERKKC
modifications: disulfide 1-19; not fully specified (N-terminus); printed as C_1_TPQATASMKDGKWERKKC_19_
Inhibition rate of sPHGDH enzyme activity (NADH fluorescence) at 50 µM peptide; the pair blocked is the sPHGDH homo-dimer (m1+m1) [3]: 40%

— PMC10563079 (Molecules, 2023)
